Measured values reported in US20160312212A1 (published 2016).
Each block holds one binder with its values, some of them ahead of it. Where no end group is shown, it is not given here. The star is where a group is joined. Biotin = O=C1N[C@H]2[C@H](CS[C@H]2CCCCC(=O)*)N1

Key:
Thrombin [1] = target: T1, Thrombin (UniProt P00734 328-622); experiment: SPR (Biacore multiple cycle kinetics)
Thrombin [2] = target: T1, Thrombin; experiment: SPR (Biacore single cycle kinetics)

Kd (Thrombin [1]): 36600 pM
Binder: Biotin-GGGGSGGGGSRDPGRLIFQS [Biotin-GGGGSGGGGSRDPGRLIFQS]

Kd (Thrombin [2]): 960 pM
B1: peptide encoded by linear DNA template 300-53-C (cow antibody scaffold with RDPGRLIFQS and Strep-tag II) (designed binder)
chain: MGCTSVHQETKKYQSRDPGRLIFQSSYTYNYEHVDVWGCGSAWSHPQFEKGS

Kd (Thrombin [1]): 780 pM
Binder: Biotin-GCTSVHQETKKYQSRDPGRLIFQSSYTYNYEHVDVWGCG (designed binder, cysteine pairing not given here) [Biotin-GCTSVHQETKKYQSRDPGRLIFQSSYTYNYEHVDVWGCG]
